Source: PMC2993637

Assays:
[1] = biological target: MLL transactivation domain (Homo sapiens) (UniProt Q03164); details: cited from earlier work
[2] = biological target: KIX domain (residues 586-672) of mouse CBP, wild type (mouse) (UniProt P45481); test: ITC
[3] = biological target: KIX domain (residues 586-672) of mouse CBP, L628A (mouse) (UniProt P45481); test: NMR titration
[4] = biological target: KIX domain (residues 586-672) of mouse CBP, wild type (mouse) (UniProt P45481); test: NMR titration

| Substance | Kd [1] [µM] | Kd [2] [µM] | Kd1 (primary site, two-site model) [3] [µM] | Kd2 (secondary site, two-site model) [3] [mM] | percent of KIX in the MLL-bound form (1:2 KIX:MLL) [3] [%] | Kd2 (secondary site, two-site model) [4] [µM] | percent of KIX in the MLL-bound form (1:1 KIX:MLL) [4] [%] |
| --- | --- | --- | --- | --- | --- | --- | --- |
| CBP KIX (from UniProt P45481) | 2.8 |  |  |  |  |  |  |
| Human MLL transactivation domain (2842-2469 as printed) (domain or fragment) |  | 2.1 | 220 | 1.63 | 74 | 920 | 94 |
